According to US20190300610A1:

Legend:
Test in all cases: reported; reported KD
[1] = target: mFcRn
[2] = target: mFcgRIII
[3] = target: mFcgRIIb
[4] = target: mFcgRIV

## mIgG2b
[1]
  Kd: 545 nM
[2]
  Kd: 1.55 µM
[3]
  Kd: 448 nM
[4]
  Kd: 59 nM

## mIgG1
[1]
  Kd: 1160 nM
[2]
  Kd: 3.2 µM
[3]
  Kd: 301 nM

## hIgG3
[1]
  Kd: 230 nM
[2]
  Kd: 1.3 µM
[3]
  Kd: 700 nM
[4]
  Kd: 170 nM

## hIgG4
[1]
  Kd: 116 nM
[2]
  Kd: 21 µM
[3]
  Kd: 11000 nM
[4]
  Kd: 26000 nM

## hIgG2
[1]
  Kd: 63 nM
[2]
  Kd: 9.7 µM
[3]
  Kd: 7900 nM

## hIgG1
[1]
  Kd: 72 nM
[2]
  Kd: 9.3 µM
[3]
  Kd: 1100 nM
[4]
  Kd: 280 nM

## mIgG3
[1]
  Kd: 140 nM

## mIgG2a
[1]
  Kd: 490 nM
[2]
  Kd: 1.46 µM
[3]
  Kd: 2390 nM
[4]
  Kd: 34.5 nM
